The series concerns the molecule itself. Kind of series: cryo-EM structure; purified native BKV virions (0.25 mg/ml) adsorbed on carbon-coated lacey grids in buffer A without Triton X-100; icosahedral reconstructions: unliganded 3.8 A, with 20 mM GT1b oligosaccharide 3.4 A, with heparin 10 mg/ml 3.6 A, with 5 mM DTT (reduced) 6.5 A.

B1: BK polyomavirus major capsid protein VP1 (natural protein)
chain: MAPTKRKGECPGAAPKKPKEPVQVPKLLIKGGVEVLEVKTGVDAITEVECFLNPEMGDPDENLRGFSLKLSAENDFSSDSPERKMLPCYSTARIPLPNLNEDLTCGNLLMWEAVTVQTEVIGITSMLNLHAGSQKVHEHGGGKPIQGSNFHFFAVGGEPLEMQGVLMNYRSKYPDGTITPKNPTAQSQVMNTDHKAYLDKNNAYPVECWVPDPSRNENARYFGTFTGGENVPPVLHVTNTATTVLLDEQGVGPLCKADSLYVSAADICGLFTNSSGTQQWRGLARYFKIRLRKRSVKNPYPISFLLSDLINRRTQRVDGQPMYGMESQVEEVRVFDGTERLPGDPDMIRYIDKQGQLQTKML
notes: Major capsid protein VP1 of BK polyomavirus, Dunlop strain, as it stands in the native virion made from the genome of plasmid pGEM7-Dunlop; the model is built up to Lys359 in chain 6, and the first 13 residues of chain 2 are not resolved; Protein of the native virion, with no tags and no truncation; The capsid is built from 72 pentons of VP1 (T = 7d); also called BKV VP1; chains 1-6 (the six …)
Turning to B1, the binding result is given as “binds”.

Source of the values: publication PMC5992339, “The Structure of an Infectious Human Polyomavirus and Its Interactions with Cellular Receptors” (Structure(London, England:1993), 2018).
